# Source: PMC3688683, “The N-Terminal Domains of Vps3 and Vps8 Are Critical for Localization and Function of the CORVET Tethering Complex on Endosomes” (PLoS ONE, 2013)
# T1: Vps3-TAP (full-length Vps3, C-terminal TAP tag) (yeast (genomic locus of BY4741/BY4733 …, UniProt P23643 1-1011))
# T1 construct: Vps3, CORVET-specific subunit, yeast, full-length; also called Vps3-Cbp; source: yeast, genomically TAP-tagged, in lysate; overexpressed and TAP-purified from yeast for the GST-Rab pull-down; not shown: TAP, C-terminal, kept
# T1 sequence (looked up): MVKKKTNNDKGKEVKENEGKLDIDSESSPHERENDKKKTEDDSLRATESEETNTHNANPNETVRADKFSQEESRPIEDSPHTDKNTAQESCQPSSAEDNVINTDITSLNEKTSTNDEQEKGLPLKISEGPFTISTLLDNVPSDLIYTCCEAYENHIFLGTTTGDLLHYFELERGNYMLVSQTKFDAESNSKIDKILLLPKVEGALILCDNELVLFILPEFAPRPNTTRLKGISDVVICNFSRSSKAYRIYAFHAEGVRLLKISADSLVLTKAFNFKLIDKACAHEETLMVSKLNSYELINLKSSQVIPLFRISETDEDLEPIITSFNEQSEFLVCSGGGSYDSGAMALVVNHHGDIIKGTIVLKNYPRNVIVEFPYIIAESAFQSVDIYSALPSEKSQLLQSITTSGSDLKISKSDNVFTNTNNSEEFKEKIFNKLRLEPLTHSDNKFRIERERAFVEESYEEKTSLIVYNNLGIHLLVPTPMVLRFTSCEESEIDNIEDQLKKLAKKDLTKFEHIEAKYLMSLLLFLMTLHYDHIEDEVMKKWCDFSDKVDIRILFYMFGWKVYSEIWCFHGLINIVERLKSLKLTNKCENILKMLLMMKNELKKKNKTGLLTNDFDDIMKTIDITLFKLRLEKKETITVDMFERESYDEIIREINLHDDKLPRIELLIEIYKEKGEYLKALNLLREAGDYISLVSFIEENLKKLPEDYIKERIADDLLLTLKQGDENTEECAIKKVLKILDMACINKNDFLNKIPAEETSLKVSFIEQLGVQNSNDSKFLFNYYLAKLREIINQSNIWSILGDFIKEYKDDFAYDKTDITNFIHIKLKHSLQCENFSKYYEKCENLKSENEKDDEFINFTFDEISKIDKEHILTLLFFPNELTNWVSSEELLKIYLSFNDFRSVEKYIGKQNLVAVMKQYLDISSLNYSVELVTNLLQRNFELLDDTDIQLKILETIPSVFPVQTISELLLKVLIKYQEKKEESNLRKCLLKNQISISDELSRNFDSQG
# Target: T1, Vps3-TAP (full-length Vps3, C-terminal …)
# Assay: pull-down; 150 µg GST-Vps21 loaded with GTPγS (or GDP) on GSH-Sepharose; 35 µg yeast-purified Vps3-Cbp construct, 1 h at 4°C; 20 mM HEPES/NaOH pH 7.4, 150 mM NaCl, 2 mM MgCl2, 0.1% NP-40, 7 mg/ml BSA; eluted with 20 mM EDTA; blot against Cbp
# Settings: both partners purified
binder,measurement,value
"GST-Vps21 (natural protein, yeast, UniProt P36017 1-210, looked up, Vps21, endosomal Rab5-like GTPase of yeast; loaded with GTPγS or GDP before the pull-down; Held on GSH-Sepharose; nucleotide state set by loading with 1 mM GTPγS or GDP; also called Vps21-GTP; immobilized Vps21; source: recombinant) MNTSVTSIKLVLLGEAAVGKSSIVLRFVSNDFAENKEPTIGAAFLTQRVTINEHTVKFEIWDTAGQERFASLAPMYYRNAQAALVVYDVTKPQSFIKARHWVKELHEQASKDIIIALVGNKIDMLQEGGERKVAREEGEKLAEEKGLLFFETSAKTGENVNDVFLGIGEKIPLKTAEEQNSASNERESNNQRVDLNAANDGTSANSACSC",binding result,binds
